From patent US12545899B2, “Luciferase enzymes for use with thermostable luciferins in bioluminescent assays” (Promega Corporation, priority 2018, dated 2026)
Numbering of substitutions follows the chain as printed. In names and notes the source's numbering stands.

B1: C2157D2: SEQ ID NO: 74; H244W+T344A+I396K+S193A+N228D+L305F+S306P+I109V+K107N+T289S (protein)
chain: MADKNILYGPEPFYPLEDGTAGEQMFDALSRYAAIPGCIALTNAHTKENVLYEEFLKLSCRLAESFKKYGLKQNDTIAVCSENSLQFFLPVIASLYLGIIVAPVNDKYIERELIHSLGIVKPRIVFCSKNTFQKVLNVKSKLKSIETIIILDLNEDLGGYQCLNNFISQNSDSNLDVKKFKPYSFNRDDQVASIMFSSGTTGLPKGVMLTHKNIVARFSIAKDPTFGNAINPTSAILTVIPFHHGFGMMTTLGYFTCGFRVVLMHTFEEKLFLQSLQDYKVESTLLVPTLMAFLAKSALVEKYDLSHLKEIASGGAPLSKEIGEMVKKRFKLNFVRQGYGLTETTSAVLITPKGDAKPGSTGKIVPLHAVKVVDPTTGKILGPNEPGELYFKGPMKMKGYYNNEEATKAIIDNDGWLRSGDIAYYDNDGHFYIVDRLKSLIKYKGYQVAPAEIEGILLQHPYIVDAGVTGIPDEAAGELPAAGVVVQTGKYLNEQIVQDYVASQVSTAKWLRGGVKFLDEIPKGSTGKIDRKVLRQMLEKHTNGHHHHHHHH
B2: C2242E1: SEQ ID NO: 42; H244W+T344A+I396K+S193A+N228D+L305F+S306P+I109V+C38R+F55I+V262A+I422V (protein)
chain: MADKNILYGPEPFYPLEDGTAGEQMFDALSRYAAIPGRIALTNAHTKENVLYEEILKLSCRLAESFKKYGLKQNDTIAVCSENSLQFFLPVIASLYLGIIVAPVNDKYVERELIHSLGIVKPRIVFCSKNTFQKVLNVKSKLKSIETIIILDLNEDLGGYQCLNNFISQNSDSNLDVKKFKPYSFNRDDQVAAIMFSSGTTGLPKGVMLTHKNIVARFSIAKDPTFGDAINPTSAILTVIPFHWGFGMMTTLGYFTCGFRVALMHTFEEKLFLQSLQDYKVESTLLVPTLMAFLAKSALVEKYDFPHLKEIASGGAPLSKEIGEMVKKRFKLNFVRQGYGLTEATSAVLITPKGDAKPGSTGKIVPLHAVKVVDPTTGKILGPNEPGELYFKGPMKMKGYYNNEEATKAIIDNDGWLRSGDVAYYDNDGHFYIVDRLKSLIKYKGYQVAPAEIEGILLQHPYIVDAGVTGIPDEAAGELPAAGVVVQTGKYLNEQIVQDYVASQVSTAKWLRGGVKFLDEIPKGSTGKIDRKVLRQMLEKHTNGHHHHHHHH
B3: C2260B6: SEQ ID NO: 43; H244W+T344A+I396K+S193A+N228D+L305F+S306P+I109V+Y108F+V261A+N427D+F431V (protein)
chain: B2 chain with R38C, I55F, Y108F, V261A, A262V, V422I, N427D, F431V
B4: C2261D1: SEQ ID NO: 52; H244W+T344A+I396K+S193A+N228D+L305F+S306P+I109V+K121Q+V261A+V287I (protein)
chain: B2 chain with R38C, I55F, K121Q, V261A, A262V, V287I, V422I
B5: C2158A3: SEQ ID NO: 45; H244W+T344A+I396K+S193A+N228D+L305F+S306P+I109V+Q487R (protein)
chain: B2 chain with R38C, I55F, A262V, V422I, Q487R
B6: C9715F9: SEQ ID NO: 95; H244W+T344A+1396K+S193A+N228D+L305F+S306P+I109V+C38R+A316W+T342S+V348I+K205N (protein)
chain: B2 chain with I55F, A262V, A316W, T342S, V348I, V422I
B7: C9673G4: SEQ ID NO: 96; H244W+T344A+I396K+S193A+N228D+L305F+S306P+I109V+C38R+F55I+A316W+T342S+V348I+I396I (protein)
chain: B2 chain with A262V, A316W, T342S, A344T, V348I, K396I, V422I

Columns and labels:
[1] = Kinetic analysis of ATG-3707 variants with CS0333; assay type: biochemical
Protocol: Additionally, Table 5 (below) includes kinetic analysis of the ATG-3707 variants identified above. Reagent compositions included CS0333 serially diluted 10-fold from 1 mM to 10 fM in reaction buffer with 2 mM ATP. […] Reactions were incubated at 25° C. for 3 min, and luminescence was read and then normalized to ATG-3707 activity tested in parallel. […] Since C2157D2 was selected for improved brightness in CellTiterGlo® buffer over ATG-3707, it still had beneficial properties.

[2] = Brightness of additional luciferase enzyme variants with CS0333; assay type: biochemical; details: for Fold-improvement over ATG3707, CS0333 BG / Fold-improvement over ATG3707, CS0333 DR: Table 7A; for Fold-improvement over ATG3707, CS0333 BG / Fold-improvement over ATG3707, CS0333 DR / luminescence CS0333 BG / luminescence CS0333 DR: 1 mM CS0333; for Fold-improvement over ATG3707, CS0333 BG / luminescence CS0333 BG / Fold improvement over ATG3707, CS0333 BG: Bright-Glo buffer; for Fold-improvement over ATG3707, CS0333 DR / luminescence CS0333 DR / Fold improvement over ATG3707, CS0333 DR: Detection Reagent buffer; for luminescence CS0333 BG / luminescence CS0333 DR / Fold improvement over ATG3707, CS0333 BG / Fold improvement over ATG3707, CS0333 DR: Table 7B
Protocol: (§1) Additional luciferase enzyme variants were generated and evaluated for their stability and activity. To evaluate the additional luciferase enzyme variants, 0.005 mg/ml luciferase enzyme variant was mixed with 1 mM ATP+1 mM substrate in either Bright-Glo™ (BG) or Detection Reagent (DR) buffers. […] (Table 7A is colored according to their relative luminescence values within each column across a red to green color spectrum with the lowest values colored red and the highest values colored green.)

[3] = Brightness of additional luciferase enzyme variants with CS0280; assay type: biochemical; details: for Fold-improvement over ATG3707, CS0280 BG / Fold-improvement over ATG3707, CS0280 DR: Table 7A; for Fold-improvement over ATG3707, CS0280 BG / Fold-improvement over ATG3707, CS0280 DR / luminescence CS0280 BG / luminescence CS0280 DR: 1 mM CS0280; for Fold-improvement over ATG3707, CS0280 BG / luminescence CS0280 BG / Fold improvement over ATG3707, CS0280 BG: Bright-Glo buffer; for Fold-improvement over ATG3707, CS0280 DR / luminescence CS0280 DR / Fold improvement over ATG3707, CS0280 DR: Detection Reagent buffer; for luminescence CS0280 BG / luminescence CS0280 DR / Fold improvement over ATG3707, CS0280 BG / Fold improvement over ATG3707, CS0280 DR: Table 7B
Protocol: as §1

[4] = Differential scanning fluorimetry (DSF) analysis; assay type: physicochemical; parameters: key to DSF Tm: melting temperature in °C (heated 30-95 °C at 1 °C/min); details: for DSF Tm: Table 7A; for DSF Tm (° C.): Table 7B
Protocol: (§2) To conduct the experiment, Sypro Orange (5000×) was diluted in water to 3× and combined with enzymes stored in 50 mM HEPES pH 7.5, 100 mM NaCl, 2 mM EDTA to a final concentration of 5×. Fluorescence was read at 60 second intervals as the reactions were heated at 1° C. per minute from 30-95° C. The change in fluorescence at each minute was calculated and plotted for each temperature in the range.
as §2, with “The luciferase enzyme variants generated were also evaluated using DSF analysis as shown in the representative results provided in Tables 7A and 7B above. To” for “To”, “the experiments,” for “the experiment,”, “in 20” for “in 50”, “7.5, 200” for “7.5, 100”, “NaCl, 1” for “NaCl, 2”

[5] = Luminescence of ATG-3707 variants (second round epPCR) with CS0333; assay type: biochemical; details: for Luminescence (RLU) BrightGlo / Normalized Luminescence BrightGlo: BrightGlo buffer; for Luminescence (RLU) BrightGlo / Luminescence (RLU) CellTiterGlo / Luminescence (RLU) Detection Reagent: 25° C., 3 min; for Normalized Luminescence BrightGlo / Normalized Luminescence CellTiterGlo / Normalized Luminescence Detection Reagent: normalized to ATG-3707; for Luminescence (RLU) CellTiterGlo / Normalized Luminescence CellTiterGlo: CellTiterGlo buffer; for Luminescence (RLU) Detection Reagent / Normalized Luminescence Detection Reagent: Detection Reagent buffer
Protocol: Reagent compositions included CS0333 diluted from 20 mM to 2 mM in reaction buffer with 2 mM ATP. […] Reactions were incubated at 25° C. for 3 min, and luminescence was read and then normalized to ATG-3707 activity tested in parallel.

Molecule | Km ([1]; BrightGlo) | Vmax (RLU) ([1]; BrightGlo) | Km ([1]; Detection Reagent) | Vmax (RLU) ([1]; Detection Reagent) | Fold-improvement over ATG3707, CS0333 BG [2] | Fold-improvement over ATG3707, CS0333 DR [2] | Fold-improvement over ATG3707, CS0280 BG [3] | Fold-improvement over ATG3707, CS0280 DR [3] | DSF Tm [4] | Luminescence (RLU) BrightGlo [5] | Normalized Luminescence BrightGlo [5] | Luminescence (RLU) CellTiterGlo [5] | Normalized Luminescence CellTiterGlo [5] | Luminescence (RLU) Detection Reagent [5] | Normalized Luminescence Detection Reagent [5] | further results
B1 | 6.31 µM | 3,053,170 RLU | 97.1 µM | 3,677,773 RLU | 1.16 | 1.52 | 2.36 | 3.08 | 63 |  |  |  |  |  |  | 
B2 | 5.81 µM | 7,021,077 RLU | 109 µM | 5,366,355 RLU | 1.75 | 1.63 | 1.25 | 1.56 | 54 | 5643850 RLU | 1.45 | 708509 RLU | 1.10 | 6604720 RLU | 1.28 | 
B3 | 4.06 µM | 4,439,047 RLU | 68.2 µM | 4,995,834 RLU | 0.70 | 1.00 | 0.82 | 0.97 | 55 | 2896240 RLU | 0.74 | 921045 RLU | 1.43 | 6230440 RLU | 1.21 | 
B4 | 5.92 µM | 4,702,332 RLU | 79.8 µM | 4,103,451 RLU | 1.27 | 1.24 | 2.02 | 2.41 | 54 | 3436380 RLU | 0.88 | 841889 RLU | 1.31 | 4820920 RLU | 0.93 | 
B5 | 5.15 µM | 4,009,543 RLU | 101 µM | 3,944,016 RLU | 0.92 | 1.15 | 1.30 | 1.49 | 61 | 3392960 RLU | 0.87 | 1027180 RLU | 1.59 | 6034440 RLU | 1.17 | 
B6 |  |  |  |  |  |  |  |  |  |  |  |  |  |  |  | luminescence CS0333 BG [2]: 18,891,000; luminescence CS0333 DR [2]: 14,484,700; Fold improvement over ATG3707, CS0333 BG [2]: 3.55; Fold improvement over ATG3707, CS0333 DR [2]: 3.40; luminescence CS0280 BG [3]: 2,040,340; luminescence CS0280 DR [3]: 245,081; Fold improvement over ATG3707, CS0280 BG [3]: 2.57; Fold improvement over ATG3707, CS0280 DR [3]: 8.38; DSF Tm (° C.) [4]: 68 °C
B7 |  |  |  |  |  |  |  |  |  |  |  |  |  |  |  | luminescence CS0333 BG [2]: 18,508,700; luminescence CS0333 DR [2]: 12,268,900; Fold improvement over ATG3707, CS0333 BG [2]: 3.48; Fold improvement over ATG3707, CS0333 DR [2]: 2.88; luminescence CS0280 BG [3]: 1,298,420; luminescence CS0280 DR [3]: 104,671; Fold improvement over ATG3707, CS0280 BG [3]: 1.64; Fold improvement over ATG3707, CS0280 DR [3]: 3.58; DSF Tm (° C.) [4]: 71 °C
